Reference: patent US20250043302A1, “MUTATED HYDROXYPHENYLPYRUVATE DIOXYGENASE POLYPEPTIDE, AND CODING GENE AND USE THEREOF” (BEIJING DABEINONG BIOTECHNOLOGY CO., LTD., priority 2021, published 2025)

Columns and labels:
Assay type in all cases: in vivo
[1] = system: Arabidopsis thaliana T1 plants; test: Isoxaflutole tolerance of transgenic Arabidopsis thaliana T1 plants (spray, bleached leaf area grade, damage score); parameters: Scores (pesticide damage): scale not given here; settings: spray, Arabidopsis thaliana T1 plants; for Classification and statistics of the grade of pesticide damage: Grade 0 (number of plants) / Classification and statistics of the grade of pesticide damage: Grade 1 (number of plants) / Classification and statistics of the grade of pesticide damage: Grade 2 (number of plants) / Classification and statistics of the grade of pesticide damage: Grade 3 (number of plants): 16 plants
Outline: (§1)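 Damage graded 0–3 from the proportion of bleached leaf area 7 days after spraying. Plants were glufosinate-selected T1 lines, 18 days after sowing, plus vector and wild-type controls. Rates: mesotrione 52.5–420, isoxaflutole 35–280, topramezone 25–200 g ai/ha, with water (0×).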

[2] = system: Arabidopsis thaliana T1 plants; test: Topramezone tolerance of transgenic Arabidopsis thaliana T1 plants (spray, bleached leaf area grade, damage score); settings: 7 DAT, Table 4; for Classification and statistics of the grade of pesticide damage: Grade 0 / Classification and statistics of the grade of pesticide damage: Grade 1 / Classification and statistics of the grade of pesticide damage: Grade 2 / Classification and statistics of the grade of pesticide damage: Grade 3: number of plants; for Scores: pesticide damage score 0-100
Outline: as §1

[3] = system: Arabidopsis thaliana T1 plants; test: Mesotrione tolerance of transgenic Arabidopsis thaliana T1 plants (spray, bleached leaf area grade, damage score); parameters: Scores: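 damage score 0-100 computed as Σ(N×S)/(T×M)×100 over grades 0-3 with higher meaning more damage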; settings: Arabidopsis thaliana T1 plants; for Grade 0 (classification and statistics of the grade of pesticide damage; number of plants) / Grade 1 (classification and statistics of the grade of pesticide damage; number of plants) / Grade 2 (classification and statistics of the grade of pesticide damage; number of plants) / Grade 3 (classification and statistics of the grade of pesticide damage; number of plants): 16 plants
Outline: as §1

[4] = isoxaflutole 35 g ai/ha (0.5x field concentration)
[5] = isoxaflutole 70 g ai/ha (1x field concentration)

B1: MsHPPD-02: nucleotide sequence encoding wild-type Medicago sativa HPPD; vector DBN11734 (nucleic acid)
DNA: ATGGCTATTGAAACCGAAACACAAACTCAGACTGGATTTAAACTGGTAGGGTTCAAGAATTTCGTTAGGGCTAATCCCAAGTCTGATCGTTTTAAGGTCAAGAGGTTCCACCACGTGGAGTTCTGGTGCACTGATGCAACCAACACGGCGCGGCGTTTTTCACATGGTCTTGGAATGCCTATTGTTGCAAAATCCGACCTCTCCACGGGGAACCAAACACACGCCTCTTACCTGCTACGGAGTGGTGACTTGAACTTCCTCTTCAGCGCCGCCTACTCACCCTCCATATCGTTGTCTTCACCATCCTCGACCGCAGCAATTCCTACATTTTCTGCGAGCAACTGCTTCTCTTTCTCTGCCAGTCATGGCCTCGCCGTCAGAGCAGTGGCCGTTGAAGTAGAGGATGCTGAACTTGCTTTTACAACTTCAGTGAATAATGGAGCAATACCGAGCAGTCCGCCGGTCATACTTGAGAATCATGTGAAGCTAGCGGAGGTGAGGCTTTATGGGGACGTCGTTTTAAGATATGTCAGCTACAATGATCCAAACCCCAATCAAAATCCAAATTTGTTGTTCCTTCCTGGCTTCGAGCGTGTTAGCGATGAATCTTCAAACTCTTCACTGGATTTTGGAATCAGACGGTTGGATCATGCTGTTGGAAATGTTCCTGAACTCTCGAGCGCTGTGAAATATGTGAAGGACTTCACCGGTTTTCATGAATTTGCTGAGTTTACTGCAGAAGATGTGGGTACATCAGAGAGTGGCTTGAATTCCGTGGTGCTCGCCAACAACGAGGAGACTGTACTCTTACCAATGAATGAGCCAGTCTATGGCACCAAGCGTAAATCTCAAATTGAGACATATTTGGAGCACAATGAAGGAGCTGGACTTCAGCATCTCGCGCTGAAGAGTGAGGACATCTTCCGCACCCTACGGGAGATGAGGAAAAGAAGTGGTGTTGGTGGGTTTGAATTCATGCCATCACCTCCTGTCACCTACTACAGGAACCTGAAGAACAGAGTTGGTGATGTACTTTCGGACGAGCAGATAAAGGAATGTGAAGAGTTGGGGATTTTGGTTGATAGAGATGATCAAGGAACACTCCTGCAGATTTTTACAAAACCAATTGGCGACCGCCCCACTATCTTCATAGAGATCATCCAGAGGGTGGGGTGCATGCTCAAAGACGAGGAAGGGAAGGAGTACCAGAAGGGCGGCTGTGGTGGTTTTGGGAAAGGAAACTTTTCTGAGTTATTCAAATCAATTGAAGAGTATGAGAAGACGCTTGAAACGCGTCGCACTGCTTGA
modifications: MsHPPD-02 Nucleotide Sequence
notes: vector DBN11734
Resistance evaluation [1, 4]: Non-resistant | Scores (pesticide damage) [1, 4]: 100 | Classification and statistics of the grade of pesticide damage: Grade 0 (number of plants) [1, 4]: 0 | Classification and statistics of the grade of pesticide damage: Grade 1 (number of plants) [1, 4]: 0 | Classification and statistics of the grade of pesticide damage: Grade 2 (number of plants) [1, 4]: 0 | Classification and statistics of the grade of pesticide damage: Grade 3 (number of plants) [1, 4]: 16 | Resistance evaluation [1, 5]: Non-resistant | Scores (pesticide damage) [1, 5]: 100 | Classification and statistics of the grade of pesticide damage: Grade 0 (number of plants) [1, 5]: 0 | Classification and statistics of the grade of pesticide damage: Grade 1 (number of plants) [1, 5]: 0 | Classification and statistics of the grade of pesticide damage: Grade 2 (number of plants) [1, 5]: 0 | Classification and statistics of the grade of pesticide damage: Grade 3 (number of plants) [1, 5]: 16 | Classification and statistics of the grade of pesticide damage: Grade 0 ([2]; topramezone 25 g ai/ha (1×)): 0 | Classification and statistics of the grade of pesticide damage: Grade 1 ([2]; topramezone 25 g ai/ha (1×)): 0 | Classification and statistics of the grade of pesticide damage: Grade 2 ([2]; topramezone 25 g ai/ha (1×)): 0 | Classification and statistics of the grade of pesticide damage: Grade 3 ([2]; topramezone 25 g ai/ha (1×)): 16 | Classification and statistics of the grade of pesticide damage: Grade 0 ([2]; topramezone 100 g ai/ha (4×)): 0 | Classification and statistics of the grade of pesticide damage: Grade 1 ([2]; topramezone 100 g ai/ha (4×)): 0 | Classification and statistics of the grade of pesticide damage: Grade 2 ([2]; topramezone 100 g ai/ha (4×)): 0 | Classification and statistics of the grade of pesticide damage: Grade 3 ([2]; topramezone 100 g ai/ha (4×)): 16 | Scores ([2]; topramezone 25 g ai/ha (1×)): 100 | Scores ([2]; topramezone 100 g ai/ha (4×)): 100 | Resistance evaluation ([2]; topramezone 25 g ai/ha (1×)): non-resistant (non-resistant plants (scores 68-100)) | Resistance evaluation ([2]; topramezone 100 g ai/ha (4×)): non-resistant (non-resistant plants (scores 68-100)) | Resistance evaluation ([3]; mesotrione 52.5 g ai/ha): Non-resistant | Scores ([3]; mesotrione 52.5 g ai/ha): 100 | Grade 0 (classification and statistics of the grade of pesticide damage; number of plants) ([3]; mesotrione 52.5 g ai/ha): 0 | Grade 1 (classification and statistics of the grade of pesticide damage; number of plants) ([3]; mesotrione 52.5 g ai/ha): 0 | Grade 2 (classification and statistics of the grade of pesticide damage; number of plants) ([3]; mesotrione 52.5 g ai/ha): 0 | Grade 3 (classification and statistics of the grade of pesticide damage; number of plants) ([3]; mesotrione 52.5 g ai/ha): 16 | Resistance evaluation ([3]; mesotrione 105 g ai/ha): Non-resistant | Scores ([3]; mesotrione 105 g ai/ha): 100 | Grade 0 (classification and statistics of the grade of pesticide damage; number of plants) ([3]; mesotrione 105 g ai/ha): 0 | Grade 1 (classification and statistics of the grade of pesticide damage; number of plants) ([3]; mesotrione 105 g ai/ha): 0 | Grade 2 (classification and statistics of the grade of pesticide damage; number of plants) ([3]; mesotrione 105 g ai/ha): 0 | Grade 3 (classification and statistics of the grade of pesticide damage; number of plants) ([3]; mesotrione 105 g ai/ha): 16
